Measured values from paper PMC4333373, “Specific and non-specific interactions of ParB with DNA: implications for chromosome segregation”.

Experiments:
ParB (Spo0J) [1] = target: T1, ParB (Spo0J) (Bacillus subtilis 168, UniProt P26497 1-282); experiment: SEC-MALS; 50 mM Hepes-KOH pH 7.5, 100 mM KCl, 2.5 mM MgCl2, 0.1 mg/ml BSA, 1 mM DTT, 20 nM DNA; EMSA also 2.5% Ficoll, room temperature 30 min then ice 5 min, gel at 4 C; details: protein: recombinant, tags: untagged, chain copies: 2, blunt
T1 sequence: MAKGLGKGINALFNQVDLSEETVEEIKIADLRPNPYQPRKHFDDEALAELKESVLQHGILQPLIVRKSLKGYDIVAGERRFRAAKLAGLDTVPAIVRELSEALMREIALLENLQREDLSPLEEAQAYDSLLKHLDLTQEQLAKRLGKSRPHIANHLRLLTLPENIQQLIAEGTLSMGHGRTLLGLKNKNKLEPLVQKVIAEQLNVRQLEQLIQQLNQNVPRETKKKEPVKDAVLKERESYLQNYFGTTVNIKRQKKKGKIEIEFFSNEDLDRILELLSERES

ParB (Spo0J) [2] = target: T1, ParB (Spo0J); experiment: SEC-MALS; 9 uM ParB2, 10 uM DNA; 81.6 ± 1.9 kDa, one dimer per DNA; 50 mM Hepes-KOH pH 7.5, 100 mM KCl, 2.5 mM MgCl2, 0.1 mg/ml BSA, 1 mM DTT, 20 nM DNA; EMSA also 2.5% Ficoll, room temperature 30 min then ice 5 min, gel at 4 C; details: protein: recombinant; tags: untagged; chain copies: 2; label: 5'-Hex on forward strand; blunt
ParB (Spo0J) [3] = target: T1, ParB (Spo0J); experiment: SEC-MALS; 80 uM ParB2; 50 mM Hepes-KOH pH 7.5, 100 mM KCl, 2.5 mM MgCl2, 0.1 mg/ml BSA, 1 mM DTT, 20 nM DNA; EMSA also 2.5% Ficoll, room temperature 30 min then ice 5 min, gel at 4 C; details: protein: recombinant; tags: untagged; chain copies: 2; label: 5'-Hex on forward strand; blunt
[4] = label: 5'-Hex on forward strand

B1: 100-bp parS (dsDNA)
DNA 1: TGTTCGCCAACTTGAGCAGCTGATTCAGCAGTTGAATCAGAATGTTCCACGTGAAACAAAGAAAAAAGAACCTGTGAAAGATGCGGTTCTAAAAGAACGG
DNA 2: CCGTTCTTTTAGAACCGCATCTTTCACAGGTTCTTTTTTCTTTGTTTCACGTGGAACATTCTGATTCAACTGCTGAATCAGCTGCTCAAGTTGGCGAACA
Does B1 bind (ParB (Spo0J) [1]; [4])?
Result: binds

B2: 100-bp non-specific (dsDNA)
DNA 1: TGTTCGCCAACTTGAGCAGCTGATTCAGCAGTTGAATCAGAACGTGCCCAGGGAGACAAAGAAAAAAGAACCTGTGAAAGATGCGGTTCTAAAAGAACGG
DNA 2: CCGTTCTTTTAGAACCGCATCTTTCACAGGTTCTTTTTTCTTTGTCTCCCTGGGCACGTTCTGATTCAACTGCTGAATCAGCTGCTCAAGTTGGCGAACA
Does B2 bind (ParB (Spo0J) [1]; [4])?
Result: binds

B3: 24-bp parS (dsDNA)
DNA 1: AGAATGTTCCACGTGAAACAAAGA
DNA 2: TCTTTGTTTCACGTGGAACATTCT
Does B3 bind (ParB (Spo0J) [2])?
Result: binds

B4: 24-bp non-specific (dsDNA)
DNA 1: AGAACGTGCCCAGGGAGACAAAGA
DNA 2: TCTTTGTCTCCCTGGGCACGTTCT
Does B4 bind (ParB (Spo0J) [3])?
Result: binds

B5: 50-bp parS (dsDNA)
DNA 1: CAGCAGTTGAATCAGAATGTTCCACGTGAAACAAAGAAAAAAGAACCTGT
DNA 2: ACAGGTTCTTTTTTCTTTGTTTCACGTGGAACATTCTGATTCAACTGCTG
Does B5 bind (ParB (Spo0J) [1]; label: 5'-Hex on forward strand (SEC-MALS))?
Result: binds
